Data from PMC2856916.

Legend:
[1] = system: histone octamer H3 K56Ac (smFRET); experiment: single-molecule FRET; details: DNA breathing increased by K56Ac; Binding assay buffers not given in material; array DNA kept in 2 M NaCl, 10 mM TEA, 1 mM EDTA; reconstituted arrays dialysed into 1 mM MgCl2, 10 mM TEA pH 7.4
[2] = system: histone octamer unacetylated H3 (smFRET); experiment: single-molecule FRET; details: reference; Binding assay buffers not given in material; array DNA kept in 2 M NaCl, 10 mM TEA, 1 mM EDTA; reconstituted arrays dialysed into 1 mM MgCl2, 10 mM TEA pH 7.4

mononucleosome DNA for smFRET
binding signal (fold DNA breathing vs unacetylated) [1]: 7 | binding signal (fold DNA breathing (reference)) [2]: 1
